Results taken from the Immune Epitope Database (IEDB).

Assays:
HLA-A*01:01 [1] = assay: IEDB peptide-MHC binding, purified MHC/direct/fluorescence; filed as Kd, often an IC50 or EC50 that approximates it; ≥ and ≤ were set here for values at or beyond the usual limits of such assays
HLA-A*32:01 = assay: IEDB peptide-MHC binding, purified MHC/competitive/radioactivity; filed as Kd, often an IC50 or EC50 that approximates it; ≥ and ≤ were set here for values at or beyond the usual limits of such assays
HLA-B*44:02 = assay: as above
HLA-B*40:01 [2] = assay: as above
HLA-A*30:02 = assay: as above
HLA-B*53:01 = assay: as above
HLA-B*35:01 = assay: as above
HLA-B*44:03 = assay: as above
HLA-A*01:01 [3] = assay: as above
HLA-B*51:01 = assay: as above
HLA-A*02:01 [4] = assay: IEDB peptide-MHC binding, purified MHC/competitive/fluorescence; ≥ and ≤ were set here for values at or beyond the usual limits of such assays
HLA-A*26:01 = assay: IEDB peptide-MHC binding, purified MHC/competitive/radioactivity; filed as Kd, often an IC50 or EC50 that approximates it; ≥ and ≤ were set here for values at or beyond the usual limits of such assays
HLA-A*02:01 [5] = assay: IEDB peptide-MHC binding, purified MHC/direct/fluorescence; filed as Kd, often an IC50 or EC50 that approximates it; ≥ and ≤ were set here for values at or beyond the usual limits of such assays
HLA-A*69:01 = assay: as above
HLA-A*02:06 = assay: IEDB peptide-MHC binding, purified MHC/competitive/radioactivity; filed as Kd, often an IC50 or EC50 that approximates it; ≥ and ≤ were set here for values at or beyond the usual limits of such assays
HLA-B*15:01 = assay: IEDB peptide-MHC binding, purified MHC/direct/fluorescence; filed as Kd, often an IC50 or EC50 that approximates it; ≥ and ≤ were set here for values at or beyond the usual limits of such assays
HLA-B*58:01 = assay: as above; conditions: source organism: Human immunodeficiency virus 1
HLA-A*02:03 = assay: IEDB peptide-MHC binding, purified MHC/competitive/radioactivity; filed as Kd, often an IC50 or EC50 that approximates it; ≥ and ≤ were set here for values at or beyond the usual limits of such assays; conditions: source organism: Vaccinia virus Copenhagen
HLA-A*02:02 = assay: as above; conditions: source organism: Vaccinia virus Copenhagen
HLA-A*31:01 = assay: IEDB peptide-MHC binding, purified MHC/direct/fluorescence; filed as Kd, often an IC50 or EC50 that approximates it; ≥ and ≤ were set here for values at or beyond the usual limits of such assays; conditions: source organism: Escherichia coli
HLA-A*03:01 = assay: as above
HLA-B*40:01 [6] = assay: as above; conditions: source organism: Mycobacterium tuberculosis
HLA-A*24:02 = assay: IEDB peptide-MHC binding, purified MHC/competitive/radioactivity; filed as Kd, often an IC50 or EC50 that approximates it; ≥ and ≤ were set here for values at or beyond the usual limits of such assays; conditions: source organism: Homo sapiens
[7] = source organism: Dengue virus 2 Jamaica/1409/1983
[8] = source organism: Dengue virus 4 Philippines/H241/1956
[9] = source organism: Dengue virus 1 Brazil/97-11/1997
[10] = source organism: Zaire ebolavirus
[11] = source organism: Vaccinia virus WR
[12] = source organism: Escherichia coli O157:H7
[13] = source organism: Dengue virus 1 Singapore/S275/1990
[14] = source organism: Sudan ebolavirus
[15] = source organism: Human immunodeficiency virus 1
[16] = source organism: Vaccinia virus Copenhagen
[17] = source organism: Mycobacterium tuberculosis F11
[18] = source organism: Shigella dysenteriae

Q: Which Kd (HLA-A*01:01 [1]; source organism: Homo sapiens) does the source give for ITDVQDMDP here?
A: Its Kd is 12300 nM.

Q: With SQSTIPETI as the sequence, how does the Kd (HLA-A*32:01; [7]) read?
A: The Kd was at least 24100 nM.

Q: What does the source list for CESCVYNMM?
A: Kd (HLA-B*44:02; [8]): 180 nM; Kd (HLA-B*40:01 [2]; [8]): 201 nM

Q: How did the Kd (HLA-A*30:02; [8]) turn out when RNPAQEDDQY was run?
A: The Kd was 15.9 µM.

Q: With EPGQLKLNWF as the sequence, how does the Kd (HLA-B*53:01; [7]) read?
A: The Kd was 593 nM.

Q: And the Kd (HLA-B*35:01; [7])?
A: The Kd was at least 42000 nM.

Q: Which Kd (HLA-B*44:03; [7]) does the source give for EEIAVQNWLA here?
A: The Kd was 431 nM.

Q: With TTERGGKAY as the sequence, how does the Kd (HLA-A*01:01 [3]; [8]) read?
A: Its Kd is 917 nM.

Q: How did the Kd (HLA-B*44:02; [9]) turn out when MEVDRSEAK was run?
A: Its Kd is 7940 nM.

Q: How did the Kd (HLA-A*32:01; [9]) turn out when DEDHAHWTEA was run?
A: Its Kd is 390 nM.

Q: With KTHVSSWEEV as the sequence, how does the Kd (HLA-A*32:01; [9]) read?
A: The Kd was 6690 nM.

Q: How did the Kd (HLA-B*51:01; [7]) turn out when MAISGDDCVV was run?
A: The Kd was 4860 nM.

Q: Which IC50 (HLA-A*02:01 [4]; [10]) does the source give for KKILMNFHQ here?
A: The IC50 was 63.4 µM.

Q: Which Kd (HLA-A*32:01; [11]) does the source give for RTIYNETSI here?
A: The Kd was 1.03 nM.

Q: SVVETLEQM was tested. Which Kd (HLA-A*26:01; [9]) did it give?
A: Its Kd is 138 nM.

Q: Which Kd (HLA-A*02:01 [5]; [12]) does the source give for ALEKGIKDV here?
A: Its Kd is 6 µM.

Q: And the Kd (HLA-A*69:01; [12])?
A: Its Kd is at least 20 µM.

Q: With NYADRRWCFD as the sequence, how does the Kd (HLA-A*32:01; [7]) read?
A: The Kd was at least 52300 nM.

Q: How did the Kd (HLA-B*40:01 [2]; [13]) turn out when LENDMKFTV was run?
A: Its Kd is 124 nM.

Q: For YVILTILTII, which Kd (HLA-B*53:01; [8]) is on record?
A: The Kd was 5330 nM.

Q: What about the Kd (HLA-A*02:06; [8]) of the same sequence?
A: Its Kd is 0.00238 µM.

Q: How did the Kd (HLA-B*44:03; [9]) turn out when SEIQLTDYG was run?
A: The Kd was 441 nM.

Q: With VESWEEIPYL as the sequence, how does the Kd (HLA-B*40:01 [2]; source organism: Dengue virus 2 Peru/IQT2913/1996) read?
A: Its Kd is 52.8 nM.

Q: KMLNLNYIV was tested. Which Kd (HLA-A*32:01; [11]) did it give?
A: Its Kd is 640 nM.

Q: Which Kd (HLA-B*35:01; [13]) does the source give for MAMVLSIVS here?
A: Its Kd is 659 nM.

Q: For ILGPDCCIE, which IC50 (HLA-A*02:01 [4]; [14]) is on record?
A: Its IC50 is 28.1 µM.

Q: Which Kd (HLA-B*44:03; [9]) does the source give for LEFFLMVLLI here?
A: The Kd was 9090 nM.

Q: And the Kd (HLA-B*40:01 [2]; [9])?
A: Its Kd is 10100 nM.

Q: How did the Kd (HLA-B*44:03; [9]) turn out when EELGDGLAM was run?
A: The Kd was 76.6 nM.

Q: What about the Kd (HLA-B*40:01 [2]; [9]) of the same sequence?
A: Its Kd is 221 nM.

Q: With KQRGGYAQF as the sequence, how does the Kd (HLA-B*15:01; source organism: Mycobacterium tuberculosis variant bovis BCG str. Pasteur 1173P2) read?
A: The Kd was 323 nM.

Q: How did the Kd (HLA-B*51:01; [9]) turn out when LAHAIGTSI was run?
A: The Kd was 157 nM.

Q: With RNPKNENDQY as the sequence, how does the Kd (HLA-A*30:02; [7]) read?
A: Its Kd is 0.0207 µM.

Q: TPEGIIPSM was tested. Which Kd (HLA-B*53:01; [7]) did it give?
A: Its Kd is 252 nM.

Q: And the Kd (HLA-B*35:01; [7])?
A: Its Kd is 7.57 nM.

Q: For NSSKVSQNY, which Kd (HLA-A*01:01 [1]; [15]) is on record?
A: Its Kd is 41.2 nM.

Q: And the Kd (HLA-B*15:01; [15])?
A: The Kd was 301 nM.

Q: And the Kd (HLA-B*58:01)?
A: The Kd was 742 nM.

Q: How did the IC50 (HLA-A*02:01 [4]; [10]) turn out when MNEENRFVT was run?
A: The IC50 was 41.1 µM.

Q: What does the source list for LIAGIILLI?
A: Kd (HLA-A*02:03): 38.5 nM; Kd (HLA-A*32:01; [16]): ≥ 77800 nM; Kd (HLA-A*02:02): 0.173 nM; Kd (HLA-A*02:06; [16]): 8.22 µM

Q: Which Kd (HLA-A*32:01; [16]) does the source give for MLYGIAQKI here?
A: The Kd was 12.4 nM.

Q: STTRGALIF was tested. Which Kd (HLA-A*32:01; [11]) did it give?
A: The Kd was 296 nM.

Q: With MPKPSLFVR as the sequence, how does the Kd (HLA-A*31:01) read?
A: Its Kd is 204 nM.

Q: And the Kd (HLA-A*03:01; source organism: Escherichia coli)?
A: Its Kd is at least 20 µM.

Q: With AGILARWSSF as the sequence, how does the Kd (HLA-A*32:01; [9]) read?
A: Its Kd is 2820 nM.

Q: And the Kd (HLA-B*44:02; [9])?
A: The Kd was 5110 nM.

Q: For LENIIVPGL, which Kd (HLA-B*40:01 [6]) is on record?
A: Its Kd is 71 nM.

Q: Which Kd (HLA-B*35:01; [9]) does the source give for IANQAAILM here?
A: Its Kd is 103 nM.

Q: With FLQSPPIRE as the sequence, how does the IC50 (HLA-A*02:01 [4]; [14]) read?
A: Its IC50 is 38 µM.

Q: With AVNPGGNIY as the sequence, how does the Kd (HLA-A*01:01 [1]; [17]) read?
A: The Kd was 3000 nM.

Q: And the Kd (HLA-A*03:01; [17])?
A: The Kd was at least 20 µM.

Q: KEENLVKSMV was tested. Which Kd (HLA-B*44:03; [13]) did it give?
A: Its Kd is at least 22100 nM.

Q: With ELTGYGTVTM as the sequence, how does the Kd (HLA-A*26:01; [7]) read?
A: The Kd was 8470 nM.

Q: Which Kd (HLA-A*24:02) does the source give for RWGLLLALL here?
A: The Kd was 4.5 nM.

Q: VHQIFGSAY was tested. Which Kd (HLA-A*30:02; source organism: Dengue virus 3 Martinique/1243/1999) did it give?
A: Its Kd is 9.95 µM.

Q: What does the source list for AEIQPQWIA?
A: Kd (HLA-B*44:03; [8]): 1230 nM; Kd (HLA-B*44:02; [8]): 26.4 nM

Q: TTHTSGPSV was tested. Which IC50 (HLA-A*02:01 [4]; [14]) did it give?
A: The IC50 was 17.8 µM.

Q: For SAVPTEWFPT, which Kd (HLA-A*32:01; [8]) is on record?
A: The Kd was at least 34000 nM.

Q: How did the IC50 (HLA-A*02:01 [4]; [10]) turn out when MHNQDGLIC was run?
A: Its IC50 is 2.34 µM.

Q: GLENGLNYI was tested. Which Kd (HLA-A*02:01 [5]; source organism: Homo sapiens) did it give?
A: Its Kd is 0.825 µM.

Q: With LTDYGALTL as the sequence, how does the Kd (HLA-A*01:01 [3]; [9]) read?
A: Its Kd is 201 nM.

Q: Which Kd (HLA-A*32:01; [11]) does the source give for VTNVIIIVI here?
A: The Kd was 13.7 nM.

Q: With MAYMIGQTGI as the sequence, how does the Kd (HLA-B*51:01; [8]) read?
A: Its Kd is 57.1 nM.

Q: With EVEDYGFGIF as the sequence, how does the Kd (HLA-A*26:01; [9]) read?
A: The Kd was 1610 nM.

Q: With LPEIEDEVF as the sequence, how does the Kd (HLA-B*53:01; [9]) read?
A: Its Kd is 1240 nM.

Q: And the Kd (HLA-B*35:01; [9])?
A: The Kd was 88.1 nM.

Q: For LEENVEVEIW, which Kd (HLA-B*44:03; [7]) is on record?
A: Its Kd is 367 nM.

Q: What about the Kd (HLA-B*44:02; [7]) of the same sequence?
A: Its Kd is 124 nM.

Q: With SEKNETWKL as the sequence, how does the Kd (HLA-B*44:02; [9]) read?
A: The Kd was 153 nM.

Q: And the Kd (HLA-B*40:01 [2]; [9])?
A: Its Kd is 113 nM.

Q: How did the Kd (HLA-A*02:01 [5]; [18]) turn out when ALELGRKTL was run?
A: The Kd was 8 µM.

Q: And the Kd (HLA-A*69:01; [18])?
A: Its Kd is at least 20 µM.
